According to US20140038892A1:

Biological target: FGFR3-IIIc (UniProt P22607)
Experiment: cell-based or functional assay

Chain of FGFR3-IIIc (P22607 23-806): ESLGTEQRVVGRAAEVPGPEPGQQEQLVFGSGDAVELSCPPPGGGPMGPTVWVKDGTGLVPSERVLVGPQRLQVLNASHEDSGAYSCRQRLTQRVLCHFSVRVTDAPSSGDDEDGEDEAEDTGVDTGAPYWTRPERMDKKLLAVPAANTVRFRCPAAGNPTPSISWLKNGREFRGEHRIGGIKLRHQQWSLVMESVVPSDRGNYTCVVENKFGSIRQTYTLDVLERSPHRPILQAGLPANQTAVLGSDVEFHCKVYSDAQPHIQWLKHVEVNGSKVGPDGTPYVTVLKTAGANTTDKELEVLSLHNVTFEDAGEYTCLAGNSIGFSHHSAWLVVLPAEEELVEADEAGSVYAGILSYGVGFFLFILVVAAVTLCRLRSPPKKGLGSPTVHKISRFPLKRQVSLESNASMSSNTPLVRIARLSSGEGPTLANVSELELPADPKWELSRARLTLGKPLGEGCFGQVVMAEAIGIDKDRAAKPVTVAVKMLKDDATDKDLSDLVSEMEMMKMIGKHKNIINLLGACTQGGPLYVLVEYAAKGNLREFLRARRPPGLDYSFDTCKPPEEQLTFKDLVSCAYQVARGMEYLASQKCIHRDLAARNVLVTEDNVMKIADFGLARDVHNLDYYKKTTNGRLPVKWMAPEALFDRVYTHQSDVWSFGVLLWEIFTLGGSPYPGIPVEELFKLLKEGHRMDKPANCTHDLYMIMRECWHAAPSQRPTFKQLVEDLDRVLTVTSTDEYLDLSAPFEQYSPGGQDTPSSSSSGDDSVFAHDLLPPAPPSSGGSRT
Chain of FGF-18 delta33 (O76093 other isoform, or with tags, fused parts or gaps mutant limits assumed): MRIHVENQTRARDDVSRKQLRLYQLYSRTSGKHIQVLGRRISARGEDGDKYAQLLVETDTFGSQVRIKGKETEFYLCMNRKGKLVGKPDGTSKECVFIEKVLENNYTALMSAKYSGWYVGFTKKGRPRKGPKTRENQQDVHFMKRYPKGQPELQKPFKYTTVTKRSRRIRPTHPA
Chain of FGF18 Δ33 - HA (234 Kd) conjugate (O76093 34-207, tags or fused parts left off): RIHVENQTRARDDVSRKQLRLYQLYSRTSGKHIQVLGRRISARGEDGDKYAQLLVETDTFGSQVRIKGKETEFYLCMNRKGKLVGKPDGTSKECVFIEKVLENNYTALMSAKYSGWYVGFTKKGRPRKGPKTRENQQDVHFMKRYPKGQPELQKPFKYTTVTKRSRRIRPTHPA
Chain of FGF-18 delta51 (O76093 other isoform, or with tags, fused parts or gaps mutant limits assumed): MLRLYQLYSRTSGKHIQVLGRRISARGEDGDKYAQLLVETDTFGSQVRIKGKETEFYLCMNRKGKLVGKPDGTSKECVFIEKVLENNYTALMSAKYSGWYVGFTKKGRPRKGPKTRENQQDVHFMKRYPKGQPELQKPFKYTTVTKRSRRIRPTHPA
Chain of FGF18 w.t. (O76093 28-207 limits assumed): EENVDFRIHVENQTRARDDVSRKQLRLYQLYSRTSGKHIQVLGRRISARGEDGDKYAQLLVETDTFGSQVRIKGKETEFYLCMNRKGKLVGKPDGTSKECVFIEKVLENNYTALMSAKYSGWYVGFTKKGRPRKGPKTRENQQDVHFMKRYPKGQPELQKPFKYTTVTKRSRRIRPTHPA
Chain of FGF18 - HA (234 Kd) conjugate (O76093 28-207 limits assumed): as above
Chain of FGF18 Δ51 - HA (234 Kd) conjugate (O76093 52-207, tags or fused parts left off): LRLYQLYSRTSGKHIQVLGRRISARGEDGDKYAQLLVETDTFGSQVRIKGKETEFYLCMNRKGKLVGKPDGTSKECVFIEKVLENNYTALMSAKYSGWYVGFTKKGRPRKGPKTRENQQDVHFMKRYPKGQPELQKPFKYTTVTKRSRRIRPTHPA

| Mitogenic activity FDCP-R3 (EC50) [ng/mL] | Mitogenic activity in FDCP cell lines assay, Conjugates EC50, +Hyaluronidase [ng/mL] | Mitogenic activity in FDCP cell lines assay, Conjugates EC50, -Hyaluronidase [ng/mL] | Substance | other results |
| --- | --- | --- | --- | --- |
| < 12.5 |  |  | FGF18 Δ51 - HA (234 Kd) conjugate (from UniProt O76093 52-207) (ligand) |  |
| < 3 |  |  | FGF2 - HA (17 Kd) conjugate (from UniProt P09038 134-288) (ligand) |  |
| < 5 |  |  | FGF2 - HA (132 Kd) conjugate (from UniProt P09038 134-288) (ligand) |  |
|  | < 5 | > 10 | FGF2 conjugate with HA-hyd (10% hydrazido groups) - SMPH (from UniProt P09038 134-288) (ligand) |  |
| < 5 |  |  | FGF2 - HA (234 Kd) conjugate (from UniProt P09038 134-288) (ligand) |  |
|  |  |  | FGF-18 delta33 (from UniProt O76093 34-207) (ligand) | Mitogenic activity, FGFR-transfected FDCP cell lines assay (EC50): 3.5 ng/mL |
|  |  |  | FGF18 w.t. (from UniProt O76093 28-207) (ligand) | Mitogenic activity, FGFR-transfected FDCP cell lines assay (EC50): 5 ng/mL |
|  | < 5 | > 20 | FGF2 conjugate with HA-hyd (10% hydrazido groups) - GMBS (from UniProt P09038 134-288) (ligand) |  |
| < 5 |  |  | FGF2 - HA (74 Kd) conjugate (from UniProt P09038 134-288) (ligand) |  |
|  |  |  | FGF2 (from UniProt P09038 134-288) (ligand) | Mitogenic activity in FDCP cell lines assay (EC50): 1 ng/mL; Mitogenic activity, FGFR-transfected FDCP cell lines assay (EC50): 1 ng/mL |
| < 6.8 |  |  | FGF18 Δ33 - HA (234 Kd) conjugate (from UniProt O76093 34-207) (ligand) |  |
|  |  |  | FGF-18 delta51 (from UniProt O76093 52-207) (ligand) | Mitogenic activity, FGFR-transfected FDCP cell lines assay (EC50): 5.5 ng/mL |
| < 3 |  |  | FGF2 - CMC (250 Kd) conjugate (from UniProt P09038 134-288) (ligand) |  |
|  | < 5 | < 5 | FGF2 conjugate with HA-hyd (40% hydrazido groups) - SMPH (from UniProt P09038 134-288) (ligand) |  |
|  | < 5 | > 40 | FGF2 conjugate with HA-hyd (10% hydrazido groups) - EMCS (from UniProt P09038 134-288) (ligand) |  |
| < 10 |  |  | FGF18 - HA (234 Kd) conjugate (from UniProt O76093 28-207) (ligand) |  |
|  | > 15 | > 15 | FGF2 conjugate with HA-hyd (40% hydrazido groups) - BMPS (from UniProt P09038 134-288) (ligand) |  |
| < 3 |  |  | FGF2 - CMC (90 Kd) conjugate (from UniProt P09038 134-288) (ligand) |  |
|  | < 5 | > 20 | FGF2 conjugate with HA-hyd (10% hydrazido groups) - BMPS (from UniProt P09038 134-288) (ligand) |  |
